Laboratory results from publication PMC4759655 (Immunity, 2016).

Biological target: the molecule itself
Assay: cross-linking

B1: CD45 protein tyrosine phosphatase (receptor, UniProt P06800 26-1293, looked up)
chain: QTPTPSDELSTTENALLLPQSDPLPARTTESTPPSISERGNGSSETTYHPGVLSTLLPHLSPQPDSQTPSAGGADTQTFSSQADNPTLTPAPGGGTDPPGVPGERTVPGTIPADTAFPVDTPSLARNSSAASPTHTSNVSTTDISSGASLTTLTPSTLGLASTDPPSTTIATTTKQTCAAMFGNITVNYTYESSNQTFKADLKDVQNAKCGNEDCENVLNNLEECSQIKNISVSNDSCAPATTIDLYVPPGTDKFSLHDCTPKEKANTSICLEWKTKNLDFRKCNSDNISYVLHCEPENNTKCIRRNTFIPERCQLDNLRAQTNYTCVAEILYRGVKLVKNVINVQTDLGIPETPKPSCGDPAARKTLVSWPEPVSKPESASKPHGYVLCYKNNSEKCKSLPNNVTSFEVESLKPYKYYEVSLLAYVNGKIQRNGTAEKCNFHTKADRPDKVNGMKTSRPTDNSINVTCGPPYETNGPKTFYILVVRSGGSFVTKYNKTNCQFYVDNLYYSTDYEFLVSFHNGVYEGDSVIRNESTNFNAKALIIFLVFLIIVTSIALLVVLYKIYDLRKKRSSNLDEQQELVERDDEKQLMDVEPIHSDILLETYKRKIADEGRLFLAEFQSIPRVFSKFPIKDARKPHNQNKNRYVDILPYDYNRVELSEINGDAGSTYINASYIDGFKEPRKYIAAQGPRDETVDDFWRMIWEQKATVIVMVTRCEEGNRNKCAEYWPSMEEGTRAFKDIVVTINDHKRCPDYIIQKLNVAHKKEKATGREVTHIQFTSWPDHGVPEDPHLLLKLRRRVNAFSNFFSGPIVVHCSAGVGRTGTYIGIDAMLEGLEAEGKVDVYGYVVKLRRQRCLMVQVEAQYILIHQALVEYNQFGETEVNLSELHSCLHNMKKRDPPSDPSPLEAEYQRLPSYRSWRTQHIGNQEENKKKNRNSNVVPYDFNRVPLKHELEMSKESEPESDESSDDDSDSEETSKYINASFVMSYWKPEMMIAAQGPLKETIGDFWQMIFQRKVKVIVMLTELVNGDQEVCAQYWGEGKQTYGDMEVEMKDTNRASAYTLRTFELRHSKRKEPRTVYQYQCTTWKGEELPAEPKDLVSMIQDLKQKLPKASPEGMKYHKHASILVHCRDGSQQTGLFCALFNLLESAETEDVVDVFQVVKSLRKARPGVVCSYEQYQFLYDIIASIYPAQNGQVKKTNSQDKIEFHNEVDGGKQDANCVRPDGPLNKAQEDSRGVGTPEPTNSAEEPEHAANGSASPAPTQSS
stoichiometry N: 2
